Target: AGO2 (miR-449a RISC) (mouse, UniProt Q8CJG0 1-860)
Test: filter binding; titration regime, 0.5 nM target RNA (2.5 nM stock, 1 in 5), 37 C 1 h; stoichiometric point [RISC]/[target] 1.3 (77% active); no KD reported; Double filter binding (nitrocellulose/nylon), 5 uL reactions, 37 C for 1 h; compositions of Storage, Dilution and Reaction Mix buffers not given in material
Conditions: protein: recombinant; tags: FLAG; label: 5' 32P on target; guide:target seed pairing, guide nt 2-8 plus A opposite nt 1; rest of target single-stranded

AGO2 (miR-449a RISC), sequence (Q8CJG0 whole entry): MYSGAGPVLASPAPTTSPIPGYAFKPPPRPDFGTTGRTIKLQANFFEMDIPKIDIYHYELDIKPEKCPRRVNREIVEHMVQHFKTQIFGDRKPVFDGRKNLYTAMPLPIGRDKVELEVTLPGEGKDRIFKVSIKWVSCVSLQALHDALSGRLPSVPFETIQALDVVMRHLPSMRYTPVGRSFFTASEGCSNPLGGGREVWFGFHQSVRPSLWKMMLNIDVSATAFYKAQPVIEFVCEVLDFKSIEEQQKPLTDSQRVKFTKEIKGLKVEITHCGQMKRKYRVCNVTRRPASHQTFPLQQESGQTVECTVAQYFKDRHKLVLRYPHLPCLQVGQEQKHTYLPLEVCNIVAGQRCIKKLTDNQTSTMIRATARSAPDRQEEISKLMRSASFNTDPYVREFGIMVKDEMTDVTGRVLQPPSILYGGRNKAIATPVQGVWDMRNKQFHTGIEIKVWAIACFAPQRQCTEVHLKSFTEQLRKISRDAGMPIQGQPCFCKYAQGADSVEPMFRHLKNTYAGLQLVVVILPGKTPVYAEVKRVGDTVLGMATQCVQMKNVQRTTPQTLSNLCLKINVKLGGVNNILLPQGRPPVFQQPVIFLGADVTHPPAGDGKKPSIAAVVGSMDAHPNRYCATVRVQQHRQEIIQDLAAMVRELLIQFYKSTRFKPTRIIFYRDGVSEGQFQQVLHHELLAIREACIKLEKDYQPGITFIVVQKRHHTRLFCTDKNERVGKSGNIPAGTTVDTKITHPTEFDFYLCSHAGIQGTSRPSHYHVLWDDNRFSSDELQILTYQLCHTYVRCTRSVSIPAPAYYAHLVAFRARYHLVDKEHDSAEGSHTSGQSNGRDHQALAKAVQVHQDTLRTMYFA

B1: miR-449a guide / 8mer-site target RNA (mixed)
RNA 1: UGGCAGUGUAUUGUUAGCUGGU
RNA 2: AUGAAAUCGAUAUCUAUCACUGCCAACU
modifications: guide 5'-phosphate; target 5' 32P-phosphate
- binding result: binds

From article PMC10276142, “Protocol to measure protein-RNA binding using double filter-binding assays followed by phosphorimaging or high-throughput sequencing”
